Molecular target: DENV NS2B3 protease, active site mutant NS2B3^S135A (coexpressed NS2B hydrophilic core and NS3 prote (Dengue virus (serotype not given)))
Test: native gel or EMSA

## cGAS cleavage product C-terminal (CP-C, 125-522) (from UniProt Q8N884 125-522) (domain or fragment)
  Kd: 39.2 µM

## full-length human cyclic GMP-AMP synthase (cGAS) (from UniProt Q8N884 1-522) (natural protein)
  Kd: 21.6 µM

— paper PMC10011430
